# Measured values taken from patent publication US20200129582A1, “NOVEL PEPTIDES AND PEPTIDOMIMETICS” (UNIVERSITY OF AUCKLAND, priority 2016, published 2020).
# Residues, ends and D or L forms follow the SMILES beside them.
# Legend:
# [1] = biological target: T1, hemichannel-mediated ATP release from hCMVEC cells (Homo sapiens, UniProt P17302); test: In vitro ischemia injury ATP release assay (single alanine substituted and truncated peptides); format: cell-based
# T1 construct: endogenous in cells; host or cells: hCMVEC (human cerebral microvascular endothelial cells)
# Method: The human cerebral endothelial cells (hCMVEC) were plated at a density of 0.025×10^6 cells per well in a collagen-coated 12-well plate (1 μg/cm^2) a day prior to the experiment. Cells were incubated in culture medium overnight. Hypoxic, acidic, ion-shifted Ringer injury solution that mimics ionic concentrations and acid-base shifts of the interstitial space in hypoxic-ischemic brains (Bondarenko and Chesler, 2001, […]) was used to trigger hemichannel opening. The injury solution contained (in mM): 38 NaCl, 13 NaHCO3, 3 Na-gluconate, 65 K-gluconate, 38 NMDG-Cl, 1 NaH2PO4, and 1.5 MgCl2. The injury solution was bubbled in 95% N2, 5% CO2 gas (20 L/min) for 5 minutes and pH adjusted to 6.6 before use. The standard ringer solution contained (in mM): 124 NaCl, 3 KCl, 26 NaHCO3, 26 NaHCO3, 1 NaH2PO4, 1.3 CaCl2, 1.5 MgCl2, and 10 Glucose, and pH adjusted to 7.4 before use (Bondarenko and Chesler, 2001). In the ischemia injury model, hCMVEC cells were incubated for 2 hours in 500 μL injury solution+/−Peptide5 (100 μM) (O'Carroll et al., 2008, Cell communication & adhesion 15:27-42; Danesh-Meyer et al., 2012, Brain: a journal of neurology 135:506-520; Davidson et al., 2012, Annals of neurology 71:121-132; Davidson et al., 2013, Experimental neurology 248:301-308; Davidson et al., 2014, PloS one 9:e96558; Davidson et al., 2015, J Cereb Blood Flow Metab), or +/−extracellular loop sequences (Table 5), or modified peptides (Table 2, 3) dissolved in injury solution (500 μL) with a final concentration of 100 μM. For negative control, hCMVEC cells were incubated only in 500 μL standard ringer solution for 2 hours. For positive control, hCMVEC cells were incubated only in 500 μL […] for 2 hours. All incubations were conducted at 37° C. in 95% O2 and 5% CO2. At the end of each experiment, samples were removed and immediately placed on ice. The concentration of ATP in the samples was determined using a Luciferin/luciferase bioluminescence reaction (ATP Determination Kit, Molecular Probes) and detected using a luminescence plate reader (VICTOR X, Perkin Elmer #2030-0010). Standard curves were generated in each experiment from an ATP standard (0 to 500 nM) to convert bioluminescence units to ATP concentration. […] The data is presented as mean±standard error relative to the injury or injury-reperfusion positive control. Statistically significant differences between samples were tested using one-way analysis of variance and Tukey's multiple comparisons test.
# Peptides listed in table 5 and 2 were assessed using the ischemia injury model in hCMVEC cells as described above, and the medium was collected for ATP release measurement.
# The human cerebral endothelial cells (hCMVEC) were plated at a density of 0.025×10^6 cells per well in a collagen-coated 12-well plate (1 μg/cm^2) a day prior to the experiment. Cells were incubated in culture medium overnight. Hypoxic, acidic, ion-shifted Ringer injury solution that mimics ionic concentrations and acid-base shifts of the interstitial space in hypoxic-ischemic brains (Bondarenko and Chesler, 2001) was used to trigger hemichannel opening. The injury solution contained (in mM): 38 NaCl, 13 NaHCO3, 3 Na-gluconate, 65 K-gluconate, 38 NMDG-Cl, 1 NaH2PO4, and 1.5 MgCl2. The injury solution was bubbled in 95% N2, 5% CO2 gas (20 L/min) for 5 minutes and pH adjusted to 6.6 before use. The standard ringer solution contained (in mM): 124 NaCl, 3 KCl, 26 NaHCO3, 26 NaHCO3, 1 NaH2PO4, 1.3 CaCl2, 1.5 MgCl2, and 10 Glucose, and pH adjusted to 7.4 before use (Bondarenko and Chesler, 2001).
# [2] = biological target: T2, Connexin43 plaques in ARPE-19 cells (Homo sapiens, UniProt P17302); test: Immunocytochemistry and quantification of Cx43 plaques; format: cell-based; conditions: 2- or 6-hour treatment, Peptide5 50-500 μM, LaCl3 and CBX 500 μM
# T2 construct: a cell line with high endogenous expression of connexin43; endogenous in cells; host or cells: ARPE-19
# Method: (§1) ARPE-19 cells were grown until confluent in 8-well glass chamber-slides (BD Falcon). Confluent monolayers of ARPE-19 cells were incubated at a final concentration of 50 to 500 μM Peptide5, 500 μM LaCl3 and 500 μM CBX in culture medium for 2 or 6 hours. Cells were fixed in 4% PFA (ProSciTech) at pH 7.4 for 10 min at room temperature, permeabilized with 0.05% Triton-X100 in PBS, and incubated in 10% normal goat serum to block non-specific labelling. Cells were rinsed three times with PBS containing 0.1 mM CaCl2 between each fixation, permeabilization, and blocking steps. Connexin43 polyclonal rabbit antibody (C6219, Sigma, 1:2000) was applied overnight, followed by a goat anti-rabbit Alexa Fluor® 568 secondary antibody (Invitrogen, 1:200) for 45 minutes. Nuclei were counterstained with DAPI (Invitrogen) at 10,000-fold dilution for 5 mins, and mounted with Citifluor™ mounting medium. Images were visualised and captured using an oil immersion lens (60× magnification, 1.35 numerical aperture) on an Olympus FV1000 upright confocal laser scanning microscope and Olympus FV10-ASW 4.0 software. The Transfluor feature in MetaXpress® Image acquisition and analysis software (Version 5.3.0.1, Molecular Devices) was used to quantify the total area of Connexin43 plaques per image.
# as §1
# [3] = biological target: T3, coupled gap junction channels in hCMVEC cells (Homo sapiens, UniProt P17302); format: cell-based; conditions: hCMVEC, 100 μM, FIG. 5
# T3 construct: A confluent monolayer of hCMVECs was pre-incubated in Peptide5; endogenous in cells; host or cells: hCMVEC
# Method: (§2) The hCMVEC cells were plated in 1 μg/cm^2 collagen I (Gibco) 12-well plate at a density of 0.4×10^6 cells per well, and cultured overnight. A confluent monolayer of hCMVECs was pre-incubated in Peptide5 (5-100 μM) dissolved in culture medium for 2 hours or 24 hours. CBX at a concentration of 100 μM was used as a positive control. Cells were washed three times with phosphate buffered saline (PBS) without Ca^2+ or Mg^2+. The cells were then incubated in 0.05% Lucifer Yellow (LY) (Sigma), a fluorescent dye that is transferred through coupled gap junction channels (el-Fouly et al., 1987, Experimental cell research 168:422-430), +/−Peptide5 dissolved in PBS, and scrape-wounded with a size 10 carbon steel surgical blade (Swann-Morton, England). Following 5-minute incubation at 37° C. in 95% O2 and 5% CO2 without light, the 0.05% LY solution was removed. Cells were rinsed four times with PBS with Ca^2+ or Mg^2+, and then fixed in 4% paraformaldehyde (PFA) in PBS at pH 7.4 for 10 minutes at room temperature. Cells were then washed 3 times in PBS to remove PFA before fluorescent imaging. Fluorescent images were visualised using a Nikon TE2000E inverted fluorescent microscope (10× magnification, 0.3 numerical aperture), and captured using a Digital Sight CCD camera and Eclipse Net software (Nikon). Three images within each well from three independent experiments were taken for analysis and the total number of cells showing dye uptake from those that had been loaded were counted manually by masked observers.
# as §2, with “1987),” for “1987, Experimental cell research 168:422-430),”
# Solubility in miliQ H2O = format: physicochemical
# Method: For cell scrape load—dye coupling assays of gap junctions, induced protein distribution changes and ATP release studies of hemichannel block, Connexin43 mimetic peptide (Peptide5, sequence VDCFLSRPTEKT (SEQ ID NO: 45)) (Auspep, Australia) was synthesized at purity >95% and dissolved in miliQ H2O at a stock concentration of 10 mM. For competition assays extracellular loop matching peptides were custom synthesised and dissolved in miliQ H2O at a stock concentration of 1 mM according to purity supplied by the manufacturer (Auspep, Australia). For Peptide5 sequence substitution studies, peptides were generated in the School of Chemical Sciences, University of Auckland. The peptides were prepared using Fmoc solid phase synthesis. Fmoc-Thr(tBu)-OH or Fmoc-Ala-OH pre-loaded to the HMPP linker and attached to in-house prepared aminomethyl PS resin 2.1 (using DIC in DMF). This was followed by alternating de-protection and coupling reactions using 5% piperazine containing 0.1 M 6-Cl-HOBt and HBTU and NMM respectively via automated Tribute Fmoc-SPPS. Resin cleavage using TFA afforded crude products, which underwent purification via semi-preparative RP-HPLC. Peptides were obtained in high purity (>95%) and with good yields (17%-46%). All alanine substituted analogues were miliQ H2O soluble (Table 5).
# Peptide5 interacting site on the Connexin43 protein was determined using a competition assay. […]
# T1 sequence (P17302 2-382 limits assumed): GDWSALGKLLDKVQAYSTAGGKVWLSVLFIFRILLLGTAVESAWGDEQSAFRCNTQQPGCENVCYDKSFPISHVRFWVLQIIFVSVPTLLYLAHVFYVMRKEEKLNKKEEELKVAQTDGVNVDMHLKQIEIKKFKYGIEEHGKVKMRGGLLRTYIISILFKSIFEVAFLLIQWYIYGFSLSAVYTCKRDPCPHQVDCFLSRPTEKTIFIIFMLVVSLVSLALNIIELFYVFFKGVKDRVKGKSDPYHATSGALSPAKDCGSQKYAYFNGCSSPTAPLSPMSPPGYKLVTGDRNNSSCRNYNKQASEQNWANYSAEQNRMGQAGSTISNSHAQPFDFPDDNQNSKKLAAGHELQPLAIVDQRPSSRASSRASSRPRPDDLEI
# T2 sequence (P17302 2-382 limits assumed): as above
molecule,measurement,setting,value
"[Cl][La]([Cl])[Cl] [LaCl3, Lanthanum chloride, reference compound]","ATP release, % of the injury control",[1],47.8±13.6%
same,ATP release compared to injury control (in words),"[1]; hCMVEC, 100 μM, FIG. 3",significantly reduced ATP release
same,Connexin43 labelling per cell compared to untreated control (in words),[2],not significantly different to the control
SRPTEKT [mod-3],"LY dye transfer, % of the untreated control","[3]; 2-hour exposure, untreated control 100±4.5%",77.6±4.8%
same,"LY dye transfer, comparison in words",[3],comparable to the native Peptide5
same,ATP release compared to injury control (in words),"[1]; hCMVEC, 100 μM, FIG. 4",not significantly different to the injury control
same,ATP release compared to native Peptide5 (in words),"[1]; hCMVEC, 100 μM, FIG. 4",significantly greater ATP release
RFKPSLCTTDEV [scrambled peptide],"LY dye transfer, comparison in words",[3],no significant difference
"CC[C@H](C)[C@H](NC(=O)[C@H](Cc1ccc(O)cc1)NC(=O)[C@H](Cc1c[nH]c2ccccc12)NC(=O)[C@H](CCC(N)=O)NC(=O)[C@@H](NC(=O)[C@H](CC(C)C)NC(=O)[C@H](CC(C)C)NC(=O)[C@@H](N)Cc1ccccc1)[C@@H](C)CC)C(=O)N[C@@H](Cc1ccc(O)cc1)C(=O)NCC(=O)N[C@@H](Cc1ccccc1)C(=O)N[C@@H](CO)C(=O)N[C@@H](CC(C)C)C(=O)N[C@@H](CO)C(=O)N[C@@H](C)C(=O)N[C@H](C(=O)N[C@@H](Cc1ccc(O)cc1)C(=O)N[C@H](C(=O)N[C@@H](CS)C(=O)O)[C@@H](C)O)C(C)C [EL2a, FLLIQ WYIYG FSLSA VYTC] (H-FLLIQWYIYGFSLSAVYTC-OH; N-terminus and C-terminus assumed)",solubility in miliQ H2O,Solubility in miliQ H2O,soluble in miliQ H2O except for the EL2a sequence
